Data on one substance can be found in article doi:10.1101/2021.01.30.428887.

As usually defined, the koff is a measure of how fast the partners let go of each other.

What all share (assay): quadruple optical trap force measurement
Experiment [1] concerns the target Human vimentin C328N with three additional amino acids, GGC, at the C-terminus (human).
For experiment [2] the target is unchanged. This is another data set of the same source.
Experiment [3] shares this target. The source holds these as a separate data set.
Experiment [4] shares this target. The source holds these as a separate data set.
For experiment [5] the target is unchanged. This is another data set of the same source.
Experiment [6] shares this target. This is another data set of the same source.
The target is the same in experiment [7]. This is another data set of the same source.

Like-named read-outs stand apart in the source and are kept apart here.

Take “Human vimentin C328N with three additional amino acids, GGC, at the C-terminus (natural protein)”: the maximal interaction (rupture) force in experiment [1] was 57 pN; in experiment [2], 85 pN; in experiment [6], 112 pN. Moreover, the koff in experiment [3] is 0.1 s⁻¹; in experiment [4], 0.15 s⁻¹; in experiment [5], 0.2 s⁻¹; in experiment [6], 0.18 s⁻¹; in experiment [7] it was 0.08 s⁻¹.
